Target: mare1_human MAPRE1 (UniProt Q15691)
Sequence (Q15691 whole entry): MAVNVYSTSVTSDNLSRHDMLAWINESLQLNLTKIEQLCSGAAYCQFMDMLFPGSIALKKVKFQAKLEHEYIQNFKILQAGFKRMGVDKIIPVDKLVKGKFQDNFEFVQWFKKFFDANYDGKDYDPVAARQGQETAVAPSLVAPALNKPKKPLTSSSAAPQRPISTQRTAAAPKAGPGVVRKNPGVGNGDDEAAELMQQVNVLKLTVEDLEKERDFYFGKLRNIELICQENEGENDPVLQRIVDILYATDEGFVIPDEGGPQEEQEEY

## Desmoplakin (Homo sapiens), P15924-2 I533T
  effect of a mutation on the interaction: decreasing interaction strength

## Desmoplakin (Homo sapiens), P15924-2 N458Y
  effect of a mutation on the interaction: decreasing interaction strength

— IntAct's records for PubMed 25225338
